Consider one molecule from PMC8387475, “Combined intermittent fasting and ERK inhibition enhance the anti-tumor effects of chemotherapy via the GSK3β-SIRT7 axis” (Nature Communications, 2021).

This test concerns the target T1, His-GSK3β (UniProt P49841 1-420).
T1 construct: GSK3β, recombinant protein of the GST pull-down; The reagents list a bought recombinant human GSK3β protein (active) (Abcam ab60863); also called recombinant His-GSK3β; source: recombinant
Briefly: pull-down; GST pull-down with recombinant GST-SIRT7 and His-GSK3β. The note with it: both partners purified.

T1 sequence (P49841 whole entry): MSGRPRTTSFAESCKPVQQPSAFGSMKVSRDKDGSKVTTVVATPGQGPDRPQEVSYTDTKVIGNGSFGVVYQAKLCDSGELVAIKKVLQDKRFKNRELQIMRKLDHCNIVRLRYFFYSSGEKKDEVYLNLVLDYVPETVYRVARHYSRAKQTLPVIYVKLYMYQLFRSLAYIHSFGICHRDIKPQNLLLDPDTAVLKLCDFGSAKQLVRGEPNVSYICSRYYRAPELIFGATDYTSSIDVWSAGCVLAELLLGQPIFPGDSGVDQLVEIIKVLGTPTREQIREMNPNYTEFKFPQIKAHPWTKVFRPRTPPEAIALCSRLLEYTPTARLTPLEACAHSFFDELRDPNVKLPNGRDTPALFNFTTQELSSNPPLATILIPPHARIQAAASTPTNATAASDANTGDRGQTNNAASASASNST

B1: GST-SIRT7 (natural protein, human, UniProt Q9NRC8 1-400, looked up)
chain: MAAGGLSRSERKAAERVRRLREEQQRERLRQVSRILRKAAAERSAEEGRLLAESADLVTELQGRSRRREGLKRRQEEVCDDPEELRGKVRELASAVRNAKYLVVYTGAGISTAASIPDYRGPNGVWTLLQKGRSVSAADLSEAEPTLTHMSITRLHEQKLVQHVVSQNCDGLHLRSGLPRTAISELHGNMYIEVCTSCVPNREYVRVFDVTERTALHRHQTGRTCHKCGTQLRDTIVHFGERGTLGQPLNWEAATEAASRADTILCLGSSLKVLKKYPRLWCMTKPPSRRPKLYIVNLQWTPKDDWAALKLHGKCDDVMRLLMAELGLEIPAYSRWQDPIFSLATPLRAGEEGSHSRKSLCRSREEAPPGDRGAPLSSAPILGGWFGRGCTKRTKRKKVT
notes: SIRT7 cloned into pGEX-4T-3; also called GST-SIRT7-WT; recombinant GST-SIRT7; source: E. coli BL21, purified (glutathione agarose)
For B1, the binding result is recorded as “binds”.
